Laboratory results: patent publication US20240002544A1 (NOVIMMUNE, published 2024)
Numbering of substitutions follows the chain as printed.

B1: AI5O30/N (bispecific antibody, human IgG1, kappa, lambda, L234A L235A)
heavy: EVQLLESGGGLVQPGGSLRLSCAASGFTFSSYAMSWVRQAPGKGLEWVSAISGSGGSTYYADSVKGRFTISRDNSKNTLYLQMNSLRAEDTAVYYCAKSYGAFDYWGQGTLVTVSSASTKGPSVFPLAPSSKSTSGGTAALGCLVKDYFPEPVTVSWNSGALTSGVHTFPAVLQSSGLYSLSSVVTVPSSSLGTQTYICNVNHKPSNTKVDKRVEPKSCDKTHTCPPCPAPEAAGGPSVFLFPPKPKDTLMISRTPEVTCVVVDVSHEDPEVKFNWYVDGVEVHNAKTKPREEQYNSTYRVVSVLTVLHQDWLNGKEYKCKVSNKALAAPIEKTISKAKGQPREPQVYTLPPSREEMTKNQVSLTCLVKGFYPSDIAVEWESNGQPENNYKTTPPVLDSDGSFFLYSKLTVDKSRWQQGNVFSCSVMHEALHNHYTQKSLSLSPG
light 1: DIVMTQTPLSLSVTPGQPASISCKSSGDLLTFEGKTYLYWYLQKPGQPPQLLIYEVSNRFSGVPDRFSGSGSGTDFTLKISRVEAEDVGVYYCMQAHSTRFAFTFGQGTKVEIKRTVAAPSVFIFPPSDEQLKSGTASVVCLLNNFYPREAKVQWKVDNALQSGNSQESVTEQDSKDSTYSLSSTLTLSKADYEKHKVYACEVTHQGLSSPVTKSFNRGEC
light 2: not shown
notes: κλ-body, huIgG1-LALAPA; also called AI5 (AI_1A9) kappa / O30 (O1b6_1D1) lambda
B2: AI5O41/N (bispecific antibody, human IgG1, kappa, lambda, L234A L235A)
heavy: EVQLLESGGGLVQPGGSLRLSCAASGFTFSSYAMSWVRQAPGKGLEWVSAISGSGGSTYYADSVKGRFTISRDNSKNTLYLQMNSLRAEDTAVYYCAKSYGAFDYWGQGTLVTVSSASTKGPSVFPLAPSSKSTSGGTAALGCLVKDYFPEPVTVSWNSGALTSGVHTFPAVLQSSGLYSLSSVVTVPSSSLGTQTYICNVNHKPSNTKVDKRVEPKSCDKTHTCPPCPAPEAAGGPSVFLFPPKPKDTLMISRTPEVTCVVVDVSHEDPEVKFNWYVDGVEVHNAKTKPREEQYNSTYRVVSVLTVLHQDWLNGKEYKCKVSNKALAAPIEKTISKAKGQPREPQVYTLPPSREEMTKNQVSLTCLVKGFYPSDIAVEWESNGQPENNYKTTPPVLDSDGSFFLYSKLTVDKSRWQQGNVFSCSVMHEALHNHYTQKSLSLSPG
light 1: B1 light 1
light 2: SYVLTQPPSVSVAPGKTARITCGGNKIGHRAVHWYQQKPGQAPVLVIYYTYERPSGIPERFSGSNSGNTATLTISRVEAGDEADYYCQVWDWYSEGGVVFGGGTKLTVLGQPKAAPSVTLFPPSSEELQANKATLVCLISDFYPGAVTVAWKADSSPVKAGVETTTPSKQSNNKYAASSYLSLTPEQWKSHRSYSCQVTHEGSTVEKTVAPTECS
notes: κλ-body, huIgG1-LALAPA; also called AI5 (AI_1A9) kappa / O41 (Ob9_1A11) lambda
B3: AI5O35/N (bispecific antibody, human IgG1, kappa, lambda, L234A L235A)
heavy: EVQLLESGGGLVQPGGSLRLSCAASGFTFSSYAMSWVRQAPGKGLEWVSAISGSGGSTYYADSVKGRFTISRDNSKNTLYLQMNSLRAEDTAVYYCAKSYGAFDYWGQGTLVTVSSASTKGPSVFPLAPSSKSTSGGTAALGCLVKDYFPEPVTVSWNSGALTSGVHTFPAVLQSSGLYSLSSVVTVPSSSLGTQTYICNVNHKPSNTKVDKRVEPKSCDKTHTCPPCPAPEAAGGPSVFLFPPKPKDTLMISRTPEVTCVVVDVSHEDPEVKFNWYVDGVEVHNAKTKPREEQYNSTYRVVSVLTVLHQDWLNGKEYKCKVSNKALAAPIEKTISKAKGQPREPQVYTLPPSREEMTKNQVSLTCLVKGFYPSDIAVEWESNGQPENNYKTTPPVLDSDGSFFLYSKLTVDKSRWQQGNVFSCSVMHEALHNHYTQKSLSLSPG
light 1: B1 light 1
light 2: QPVLTQPVSLSASPGASVSLTCTLRSDIRVRDYRIFWYQQKPGSPPQYLLRYKTDSDKQQGSGVPSRFSGSKDASANAGILLISGLQSEDEADYYCMIWHRTTGTSLVFGGGTKLTVLGQPKAAPSVTLFPPSSEELQANKATLVCLISDFYPGAVTVAWKADSSPVKAGVETTTPSKQSNNKYAASSYLSLTPEQWKSHRSYSCQVTHEGSTVEKTVAPTECS
notes: κλ-body, huIgG1-LALAPA; also called AI5 (AI_1A9) kappa / O35 (Ob8_A10) lambda
B4: AI10O41/N (bispecific antibody, human IgG1, kappa, lambda, L234A L235A)
heavy: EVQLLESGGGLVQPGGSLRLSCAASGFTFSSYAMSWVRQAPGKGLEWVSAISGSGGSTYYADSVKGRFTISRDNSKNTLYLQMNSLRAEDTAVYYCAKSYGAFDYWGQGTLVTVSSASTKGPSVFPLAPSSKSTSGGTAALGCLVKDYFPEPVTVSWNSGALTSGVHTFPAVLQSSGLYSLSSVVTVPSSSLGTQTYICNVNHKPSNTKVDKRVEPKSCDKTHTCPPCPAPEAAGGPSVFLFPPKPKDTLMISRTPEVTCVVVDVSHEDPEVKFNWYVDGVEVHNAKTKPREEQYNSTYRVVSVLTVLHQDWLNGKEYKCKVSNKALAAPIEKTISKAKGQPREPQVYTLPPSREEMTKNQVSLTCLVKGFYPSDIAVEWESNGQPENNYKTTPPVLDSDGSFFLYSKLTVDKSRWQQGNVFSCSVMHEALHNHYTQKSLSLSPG
light 1: B1 light 1 with T31E, E33A, S98G, T99S, R100K, F101I, A102G
light 2: B2 light 2
notes: κλ-body, huIgG1-LALAPA; also called AI10 (AI_1B6) kappa / O41 (Ob9_1A11) lambda
B5: AI10O30/N (bispecific antibody, human IgG1, kappa, lambda, L234A L235A)
heavy: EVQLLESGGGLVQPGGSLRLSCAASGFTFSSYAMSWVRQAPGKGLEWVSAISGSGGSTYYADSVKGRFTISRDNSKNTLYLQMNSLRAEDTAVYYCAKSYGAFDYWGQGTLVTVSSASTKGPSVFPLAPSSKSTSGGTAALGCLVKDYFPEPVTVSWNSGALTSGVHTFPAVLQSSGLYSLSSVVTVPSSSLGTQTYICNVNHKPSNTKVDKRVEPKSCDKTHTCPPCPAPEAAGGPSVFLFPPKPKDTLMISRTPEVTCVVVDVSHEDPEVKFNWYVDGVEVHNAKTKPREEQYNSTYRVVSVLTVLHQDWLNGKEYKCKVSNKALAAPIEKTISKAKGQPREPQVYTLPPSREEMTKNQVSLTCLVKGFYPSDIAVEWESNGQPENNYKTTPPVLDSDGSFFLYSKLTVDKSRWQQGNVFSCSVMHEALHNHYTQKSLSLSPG
light 1: B1 light 1 with T31E, E33A, S98G, T99S, R100K, F101I, A102G
light 2: not shown
notes: κλ-body, huIgG1-LALAPA; also called AI10 (AI_1B6) kappa / O30 (O1b6_1D1) lambda
B6: AI10O35/N (bispecific antibody, human IgG1, kappa, lambda, L234A L235A)
heavy: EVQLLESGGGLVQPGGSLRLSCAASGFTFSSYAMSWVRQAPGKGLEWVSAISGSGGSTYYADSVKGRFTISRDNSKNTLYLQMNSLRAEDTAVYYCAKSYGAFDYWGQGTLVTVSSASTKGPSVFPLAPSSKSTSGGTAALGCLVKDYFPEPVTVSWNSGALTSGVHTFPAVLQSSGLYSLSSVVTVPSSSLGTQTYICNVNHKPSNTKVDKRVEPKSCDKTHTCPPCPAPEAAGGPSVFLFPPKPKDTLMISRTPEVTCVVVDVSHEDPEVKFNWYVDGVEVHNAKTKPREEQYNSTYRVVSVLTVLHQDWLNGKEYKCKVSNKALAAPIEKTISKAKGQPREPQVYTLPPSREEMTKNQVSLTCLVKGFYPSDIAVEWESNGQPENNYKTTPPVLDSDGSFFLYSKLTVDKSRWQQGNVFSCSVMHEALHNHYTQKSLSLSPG
light 1: B1 light 1 with T31E, E33A, S98G, T99S, R100K, F101I, A102G
light 2: B3 light 2
notes: κλ-body, huIgG1-LALAPA; also called AI10 (AI_1B6) kappa / O35 (Ob8_A10) lambda
B7: AI3O41/N (bispecific antibody, human IgG1, kappa, lambda, L234A L235A)
heavy: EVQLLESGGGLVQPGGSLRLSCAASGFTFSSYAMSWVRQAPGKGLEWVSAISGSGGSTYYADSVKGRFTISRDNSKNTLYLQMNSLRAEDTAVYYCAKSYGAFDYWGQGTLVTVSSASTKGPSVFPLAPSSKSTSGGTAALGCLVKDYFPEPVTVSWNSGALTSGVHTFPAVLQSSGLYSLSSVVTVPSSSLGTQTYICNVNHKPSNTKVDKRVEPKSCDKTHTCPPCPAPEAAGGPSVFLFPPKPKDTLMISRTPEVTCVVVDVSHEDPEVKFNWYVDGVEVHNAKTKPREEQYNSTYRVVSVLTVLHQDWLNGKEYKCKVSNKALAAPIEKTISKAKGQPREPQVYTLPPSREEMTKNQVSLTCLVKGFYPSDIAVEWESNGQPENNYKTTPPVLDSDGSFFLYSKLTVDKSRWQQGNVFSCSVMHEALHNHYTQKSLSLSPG
light 1: not shown
light 2: B2 light 2
notes: κλ-body, IgG1 LALAPA; also called AI3 (AI_1H5) kappa / O41 (Ob9_1A11) lambda
B8: AI3O35/N (bispecific antibody, human IgG1, kappa, lambda, L234A L235A)
heavy: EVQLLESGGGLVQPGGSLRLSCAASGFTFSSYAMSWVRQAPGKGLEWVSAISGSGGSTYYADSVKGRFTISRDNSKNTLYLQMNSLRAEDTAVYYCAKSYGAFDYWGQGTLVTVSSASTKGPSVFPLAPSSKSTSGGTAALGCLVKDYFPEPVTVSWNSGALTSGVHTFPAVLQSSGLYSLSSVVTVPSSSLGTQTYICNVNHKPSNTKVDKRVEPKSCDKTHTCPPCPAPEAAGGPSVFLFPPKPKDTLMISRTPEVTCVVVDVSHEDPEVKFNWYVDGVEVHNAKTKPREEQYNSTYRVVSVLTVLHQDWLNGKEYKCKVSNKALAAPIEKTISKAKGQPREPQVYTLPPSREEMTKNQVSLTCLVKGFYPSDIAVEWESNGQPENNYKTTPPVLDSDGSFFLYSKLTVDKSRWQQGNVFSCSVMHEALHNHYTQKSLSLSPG
light 1: not shown
light 2: B3 light 2
notes: κλ-body, IgG1 LALAPA; also called AI3 (AI_1H5) kappa / O35 (Ob8_A10) lambda
B9: 1a28/AC84/N (bispecific antibody, human IgG1, kappa, L234A L235A)
heavy 1: QSVLTQPPSVSAAPGQKVTISCSGSSSNIGIGLVSWYQQLPGTAPKLLIYNVNTRPSGIPDRFSGSKSGTSATLGITGLQTGDEADYYCGTWDFSYRVDFGGGTKLTVLSSASTKGPSVFPLAPSSKSTSGGTAALGCLVKDYFPEPVTVSWNSGALTSGVHTFPAVLQSSGLYSLSSVVTVPSSSLGTQTYICNVNHKPSNTKVDKKVEPKSCDKTHTCPPCPAPEAAGGPSVFLFPPKPKDTLMISRTPEVTCVVVDVSHEDPEVKFNWYVDGVEVHNAKTKPREEQYNSTYRVVSVLTVLHQDWLNGKEYKCKVSNKALAAPIEKTISKAKGQPREPQVYTLPPCRDELTKNQVSLWCLVKGFYPSDIAVEWQSNGQTENNYKTTPPVLDSDGSFFLYSKLTVDKSRWQQGNVFSCSVMHEALHNHYTQKSLSLSPG
heavy 2: QVQLQESGPGLVKPSETLSLTCTVSGGSISSYYWSWIRQPPGKGLEWIGYIYYSGITHYNPSLKSRVTISVDTSKIQFSLKLSSVTAADTAVYYCARWGVRRDYYYYGMDVWGQGTTVTVSSASTKGPSVFPLAPSSKSTSGGTAALGCLVEDYFPEPVTVTWNSGALSSGVHTFPAVLQSSGLYSLSSVVTVPSSSLGTQTYICNVNHKPSNTKVDEKVEPKSCDKTHTCPPCPAPEAAGGPSVFLFPPKPKDTLMISRTPEVTCVVVDVSHEDPEVKFNWYVDGVEVHNAKTKPREEQYNSTYRVVSVLTVLHQDWLNGKEYKCKVSNKALAAPIEKTISKAKGQPREPQVCTLPPSRDELTKNQVSLSCAVKGFYPSDIAVEWESNGQPENNYKTTPPVLDSDGSFFLVSKLTVDKSRWQQGNVFSCSVMHEALHNHYTQKSLSLSPG
light 1: not shown
light 2: not shown
notes: LALAPA-mutated huIgG1, 1+1 crossMAb/knobs-into-hole; also called benchmark CEA×CD28 bsAb
B10: AI3AC84/N (bispecific antibody, human IgG1, kappa, lambda, L234A L235A)
heavy: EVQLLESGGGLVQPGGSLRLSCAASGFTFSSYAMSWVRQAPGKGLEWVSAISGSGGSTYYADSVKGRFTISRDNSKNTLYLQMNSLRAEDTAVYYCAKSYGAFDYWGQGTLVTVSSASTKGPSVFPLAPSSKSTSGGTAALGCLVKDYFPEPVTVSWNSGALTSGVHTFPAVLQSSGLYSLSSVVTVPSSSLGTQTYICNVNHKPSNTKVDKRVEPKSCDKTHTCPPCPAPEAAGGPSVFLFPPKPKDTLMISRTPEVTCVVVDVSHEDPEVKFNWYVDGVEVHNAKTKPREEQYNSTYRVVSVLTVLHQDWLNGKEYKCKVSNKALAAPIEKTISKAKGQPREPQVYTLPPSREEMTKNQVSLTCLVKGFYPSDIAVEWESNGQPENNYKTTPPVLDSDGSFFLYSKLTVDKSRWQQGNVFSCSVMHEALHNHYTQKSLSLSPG
light 1: not shown
light 2: QSVLTQPPSVSAAPGQKVTISCSGSSSNIGIGLVSWYQQLPGTAPKLLIYNVNTRPSGIPDRFSGSKSGTSATLGITGLQTGDEADYYCGTWDFSYRVDFGGGTKLTVLGQPKAAPSVTLFPPSSEELQANKATLVCLISDFYPGAVTVAWKADSSPVKAGVETTTPSKQSNNKYAASSYLSLTPEQWKSHRSYSCQVTHEGSTVEKTVAPTECS
notes: κλ-body, IgG1 LALAPA; also called AI3 (AI_1H5) kappa / AC84 (AC1g6_1F1) lambda
B11: AI5AC84/N (bispecific antibody, human IgG1, kappa, lambda, L234A L235A)
heavy: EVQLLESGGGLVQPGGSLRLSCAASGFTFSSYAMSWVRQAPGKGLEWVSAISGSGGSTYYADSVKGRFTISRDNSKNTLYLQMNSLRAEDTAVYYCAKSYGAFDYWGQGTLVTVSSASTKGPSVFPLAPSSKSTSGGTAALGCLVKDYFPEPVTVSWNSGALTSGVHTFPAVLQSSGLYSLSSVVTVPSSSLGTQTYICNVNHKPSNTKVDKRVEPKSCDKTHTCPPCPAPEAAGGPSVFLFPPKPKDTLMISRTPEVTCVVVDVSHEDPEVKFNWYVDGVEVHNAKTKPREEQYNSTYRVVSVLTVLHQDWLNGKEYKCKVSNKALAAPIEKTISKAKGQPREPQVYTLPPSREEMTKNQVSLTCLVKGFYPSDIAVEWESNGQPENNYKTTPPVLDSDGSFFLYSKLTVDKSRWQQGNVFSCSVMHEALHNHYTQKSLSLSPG
light 1: B1 light 1
light 2: B10 light 2
notes: κλ-body, IgG1 LALAPA; also called AI5 (AI_1A9) kappa / AC84 (AC1g6_1F1) lambda
B12: AI10AC84/N (bispecific antibody, human IgG1, kappa, lambda, L234A L235A)
heavy: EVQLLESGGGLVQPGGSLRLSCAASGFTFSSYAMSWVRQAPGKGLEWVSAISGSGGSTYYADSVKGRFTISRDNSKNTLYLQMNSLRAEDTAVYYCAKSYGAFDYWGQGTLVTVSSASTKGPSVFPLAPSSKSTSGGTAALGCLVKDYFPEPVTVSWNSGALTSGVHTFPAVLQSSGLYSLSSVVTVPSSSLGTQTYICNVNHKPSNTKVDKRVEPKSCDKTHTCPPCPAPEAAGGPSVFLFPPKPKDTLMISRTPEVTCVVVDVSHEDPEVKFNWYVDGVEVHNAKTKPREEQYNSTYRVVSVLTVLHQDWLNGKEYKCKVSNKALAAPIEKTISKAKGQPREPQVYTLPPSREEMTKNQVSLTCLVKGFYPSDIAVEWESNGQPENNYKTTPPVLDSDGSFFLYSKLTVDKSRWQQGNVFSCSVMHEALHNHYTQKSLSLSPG
light 1: B1 light 1 with T31E, E33A, S98G, T99S, R100K, F101I, A102G
light 2: B10 light 2
notes: κλ-body, IgG1 LALAPA; also called AI10 (AI_1B6) kappa / AC84 (AC1g6_1F1) lambda

Biological target: T1, human CD28 (human, UniProt P10747 19-220)
T1 construct: whole, on cells; also called huCD28
Experiment: flow cytometry on Jurkat cells

Binding result, binds:
B1, B2, B3, B4, B5, B6, B7, B8

Biological target: T1, human CD28
Experiment: flow cytometry on Jurkat cells, reference bsAb

Binding result, binds:
B9

Biological target: T1, human CD28
Experiment: worded affinity grade in the in vivo example; no assay named there

Binding result, binds:
B10, B11, B12
